Data taken from paper PMC11748629, “Unidirectional MCM translocation away from ORC drives origin licensing” (Nature Communications, 2025).

Experiments:
Test in all cases: negative stain EM with 2D averaging; DH loading reaction in solution, no downstream purification: 10 nM MH-NCP-ARS1-NCP DNA, 20 nM ORC, 30 nM Cdc6, 0.5 mM ATP, 20 nM MCM-Cdt1; 25 mM HEPES pH 7.6, 100 mM potassium chloride, 10 mM magnesium acetate, 1 mM DTT; 30 °C, 30 min; DH counted as % of averageable MCM particles, N = 3; assemblies form on DNA
[1] = target: MCM-Cdt1 complex with Mcm2 R676A (Arginine Finger variant) (Saccharomyces cerevisiae) (UniProt P29469)
[2] = target: MCM-Cdt1 complex with Mcm3 R542A (Arginine Finger variant) (Saccharomyces cerevisiae) (UniProt P29469)
[3] = target: MCM-Cdt1 complex with Mcm4 R701A (Arginine Finger variant) (Saccharomyces cerevisiae) (UniProt P29469)
[4] = target: MCM-Cdt1 complex with Mcm6 R708A (Arginine Finger variant) (Saccharomyces cerevisiae) (UniProt P29469)
[5] = target: MCM-Cdt1 complex with Mcm7 R593A (Arginine Finger variant) (Saccharomyces cerevisiae) (UniProt P29469)
[6] = target: MCM-Cdt1 complex, wild type (expressed in yeast) (Saccharomyces cerevisiae) (UniProt P29469)

Substance: MCM-Cdt1 complex with Mcm2 R676A (Arginine Finger variant), P29469 1-868; P24279 1-971; P30665 1-933; P29496 1-775; P53091 1-1017; P38132 1-845; P47112 1-604
- DH as % of averageable MCM particles [1]: 0.5%

Substance: MCM-Cdt1 complex with Mcm3 R542A (Arginine Finger variant), P29469 1-868; P24279 1-971; P30665 1-933; P29496 1-775; P53091 1-1017; P38132 1-845; P47112 1-604
- DH as % of averageable MCM particles [2]: 13.9%

Substance: MCM-Cdt1 complex with Mcm4 R701A (Arginine Finger variant), P29469 1-868; P24279 1-971; P30665 1-933; P29496 1-775; P53091 1-1017; P38132 1-845; P47112 1-604
- DH as % of averageable MCM particles [3]: 22.4%

Substance: MCM-Cdt1 complex with Mcm6 R708A (Arginine Finger variant), P29469 1-868; P24279 1-971; P30665 1-933; P29496 1-775; P53091 1-1017; P38132 1-845; P47112 1-604
- DH as % of averageable MCM particles [4]: 2.4%

Substance: MCM-Cdt1 complex with Mcm7 R593A (Arginine Finger variant), P29469 1-868; P24279 1-971; P30665 1-933; P29496 1-775; P53091 1-1017; P38132 1-845; P47112 1-604
- DH as % of averageable MCM particles [5]: 5.3%

Substance: MCM-Cdt1 complex, wild type (expressed in yeast), P29469 1-868; P24279 1-971; P30665 1-933; P29496 1-775; P53091 1-1017; P38132 1-845; P47112 1-604
- DH as % of averageable MCM particles [6]: 56.5%
